The RNAGym collection of RNA variant scans (doi:10.7554/elife.80360)

B1: HDV Ribozyme (parent)
chain: GGCCGGCAUGGUCCCAGCCUCCUCGCUGGCGCCGGCUGGGCAACAUUCCGAGGGGACCGUCCCCUCGGUAAUGGCGAAUGGGACCCA

Variants of: B1
Experiment: self-cleavage, relative activity (ratio to wild type); higher = more cleavage; co-transcriptional

| Variant | self-cleavage |
| --- | --- |
| GGCCGGCAUGGUCCCUGCCUCCUCGCUGGCACCGGCUGGGCAACAUUCCGAGGGGACCGUCCCCUCGGUAAUGGCGAAUGGGACCCA [A16U G31A] | 0.409 |
| GGCCGGCAGGGUCCCAGCCUCCUCGCUGGCGCCGGCUGGGCCACAUUCCGAGGGGACCGUCCCCUCGGUAAUGGCGAAUGGGACCCA [U9G A42C] | 0.453 |
| GGCCGGCAUGGUCCCAGCCUCCUCGCUGGCGCCGGCUGGGCAACAUUCCGAGGGGACCGUCCCCUCGGUAAUGGAGAAUGGGACCGA [C75A C86G] | 0.0997 |
| GGCCGGCAUGGUCCCAGCCUCCUCGCUCGCGCCGGCUGAGCAACAUUCCGAGGGGACCGUCCCCUCGGUAAUGGCGAAUGGGACCCA [G28C G39A] | 0.0744 |
| AGCCGGCAUGGUCCCAGCAUCCUCGCUGGCGCCGGCUGGGCAACAUUCCGAGGGGACCGUCCCCUCGGUAAUGGCGAAUGGGACCCA [G1A C19A] | 0.0744 |
| GGCCGGCAUGGUCCCAGCCUCCUCGCUGGCGCCGGCUGGGCAACAUUCCGAGGGGACCGUCCCCUCGGUAAUGGCGAAGGAGACCCA [U79G G81A] | 0.146 |
| GGCCGGCAUGGUCCCAGCCUGCUCGCUGGCGCCGGCUAGGCAACAUUCCGAGGGGACCGUCCCCUCGGUAAUGGCGAAUGGGACCCA [C21G G38A] | 0.0339 |
| GGCCGGCCUGGUCCCAGCCUCCUCGCUGGCGCCGGCUGGGCAACAUUCCGAGGGGACCGUCCCCUCGGUAAUGGCGAAUGGGACCCA [A8C] | 0.859 |
| GGCCGGCAUGGUCCCAGCCUCCUCGCAGGCGCCGGCUGGGCAACAUUCCGAGGGGACCGUCCCCUCGGUAAUGGCGAAUCGGACCCA [U27A G80C] | 0.469 |
| GGCCGGCAUGAUCCCAGCCUCCUCGCUGGCGCCGGCUGUGCAACAUUCCGAGGGGACCGUCCCCUCGGUAAUGGCGAAUGGGACCCA [G11A G39U] | 0.0989 |
| GGCCGGCAUGGUCCCAGCCUGCUCGCUGGCGCCGGCUGGGCAACAUUCCGAGGGGACCGUACCCUCGGUAAUGGCGAAUGGGACCCA [C21G C61A] | 0 |
| GGCCGGCAUGGUCCCAGCCUCCUCGCUGGCGCCGGCUGGGCAACAUUCCGAGGGGACCGCCCCCUCGGUAAUGGCGAAUGGGACGCA [U60C C85G] | 0.965 |
| GGCCGGCAUGGUCCCAGCCUCCUCGCUGGCGCCGGCUGGGCAACAUUCCGAGGGGACCGUCCCCUCGGUAAUGGCGAAUGGGAUUCA [C84U C85U] | 0.604 |
| GGCCGGCAUGGUCCCAGCCUCCUCGCUGGCGCCGGCUGGGCAACAUUCCGAGGGGACCGUCCCAUCGGUAAUGGCGAAUGGAACCCA [C64A G82A] | 0.282 |
| GGCCGGCAUGGGCCCAGCCUCCUCGCUGGCGCCGGCUGGGCAACAUUCCGAGGGGACCGUUCCCUCGGUAAUGGCGAAUGGGACCCA [U12G C61U] | 0.831 |
| GGCCGGCAUGGUCCCAGCCUCCUCGCUGGCGCCGGCUGGGCAACAUUCCGAGGGGACCGUCCCCUCGGUAAUGUCGAAUCGGACCCA [G74U G80C] | 0.164 |
| GGCCGGCAUGGUCCCAGCCUCCUCGCUGGCGCCGGCUGGGCAACAUUACGAGGGGACCGUCCCCUCGGUAAUGGCGAAUGGGACGCA [C48A C85G] | 0.867 |
| GGCCGGCAUGGUCCCAGCCUCCUCGCUGGCGCCGGCUGGGCAACAUUCCGAGGGGACGGUCCCCUCGCUAAUGGCGAAUGGGACCCA [C58G G68C] | 0.748 |
| GGCCGGCAUGGUCCCAGCCUCCUCGCUGGCGCCGGCUCGGCAACAUUCCGGGGGGACCGUCCCCUCGGUAAUGGCGAAUGGGACCCA [G38C A51G] | 0.309 |
| GGCCGGCACGGUCCCAGCCUCCUCGCUGGCGCCGGCUGGGCAACAUUCCGAGGGGACCGUCCCCUCGUUAAUGGCGAAUGGGACCCA [U9C G68U] | 0.655 |
| GGCCGGCAUGGCCCCAGCCUCCUCGCUGUCGCCGGCUGGGCAACAUUCCGAGGGGACCGUCCCCUCGGUAAUGGCGAAUGGGACCCA [U12C G29U] | 0.0346 |
| GGCCGGCAUGGUCUCAGCCUCCUCGCUGGCGCCGGCUGGGCAACAUUCCGAGGGGACCGUCCCCUCGUUAAUGGCGAAUGGGACCCA [C14U G68U] | 1.04 |

| Variant | self-cleavage |
| --- | --- |
| GGCCGGCAUGGUCCCAGCCUCCUCGUUGGCGCCGGCUGGGCAACAUUCCGAGGAGACCGUCCCCUCGGUAAUGGCGAAUGGGACCCA [C26U G54A] | 0.774 |
| GGCCGGCAUGGUCCCAGCCUCCUCGCUGGCGCCGGCUGGGCAACAUUCCGAGGGGACCGUCCCCUCGGUAAUGGUGAAUGGGACCCA [C75U] | 0.19 |
| GGCCGUCAUGGUCCCAGCCUCCUCGCUGGCGACGGCUGGGCAACAUUCCGAGGGGACCGUCCCCUCGGUAAUGGCGAAUGGGACCCA [G6U C32A] | 1.08 |
| GGCCGGCAUGGUCCCAGCCUCCUCGCUGGCGCCGUCUGGGCAACAUUCCGAGGGGGCCGUCCCCUCGGUAAUGGCGAAUGGGACCCA [G35U A56G] | 0.393 |
| GGCCGUCAUGGUCCCAGCCUCCUCGCUGGCGCCGGCUGGGCAACAUUCCGAGGGGACCGUCCCCUCGGUCAUGGCGAAUGGGACCCA [G6U A70C] | 0.135 |
| GGCCUGCAUGGUCCCAGCCUCCUCGCUGGCGCCGGCUGGGCAACAUUCCGAGGGGACCGUCCCCUCGGUAAUGGCUAAUGGGACCCA [G5U G76U] | 0.529 |
| GGCCGGCAUGGGCCCAGCCUCCUCGCUGGCCCCGGCUGGGCAACAUUCCGAGGGGACCGUCCCCUCGGUAAUGGCGAAUGGGACCCA [U12G G31C] | 0.138 |
| GGCCGGCAUGGUCCCAGCCUCCUCGCUGGCGCCGGCUGAGCAACAUUCCGAGGGGACCGUCCCCUCGGUAAUGACGAAUGGGACCCA [G39A G74A] | 0.172 |
| GGCCGGCAUGGUCCCAGCCUCCUCGCUGGCGCCGGCUGGGCAACAUUCCGAGGGGACCGUCCCCUCGGUAAUGGCGAAUGGUCCCCA [G82U A83C] | 0.18 |
| GGCCGGCAUGGUCCCAGCCUCCUCGCUGGCGCCGGCUGGGCAACAUUCCGAGGGGACCGUCCCCUCGGUAAUGGCUAACGGGACCCA [G76U U79C] | 0.782 |
| GGCCGGCAUGGUCCCAGCCUCCUCGCUUGCGCCGGCUGGGCAAAAUUCCGAGGGGACCGUCCCCUCGGUAAUGGCGAAUGGGACCCA [G28U C44A] | 0 |
| GGCCGGCAUGGUCCCAGUCUCCUCGCUGGCGCCGGCUUGGCAACAUUCCGAGGGGACCGUCCCCUCGGUAAUGGCGAAUGGGACCCA [C18U G38U] | 0.0875 |
| GGCCGGCAUGGUUCCAGCCUCCUCGCUGGCGCCGGCUGGGCAACAUUCCGAGGGGGCCGUCCCCUCGGUAAUGGCGAAUGGGACCCA [C13U A56G] | 0.573 |
| GGCCGGCAUGGCCCCAGCCUCCUCGCUGGCGCCGGCUGGGCAACACUCCGAGGGGACCGUCCCCUCGGUAAUGGCGAAUGGGACCCA [U12C U46C] | 0.101 |
| GGUCGGCAUGGUCCCAGCCUCCUCGCUGGCGCCGGCUGGGCAACAUUCCGAGGGGACCGUCCCCUCGGUAAUGGCGAAUGGCACCCA [C3U G82C] | 0.0779 |
| GCCCGGCAUGGUCCCAGCCUCCUCGCGGGCGCCGGCUGGGCAACAUUCCGAGGGGACCGUCCCCUCGGUAAUGGCGAAUGGGACCCA [G2C U27G] | 0.0437 |
| GGCCGGCAUGGUCCCAGCCUCCUCGCUGGCGCCGGCUGGGCAACAUUCCGAGGUGACCGUCCCCUCGGUAGUGGCGAAUGGGACCCA [G54U A71G] | 0.897 |
| GGCCGGCAUGGUCCCAGCCUCCUCGCUGGCGCCGGCUCGGCAACAUUCCGAGGGGACCGUCCCCUCGGUAAUGGCGAAUGGGACACA [G38C C85A] | 0.0997 |
| GGCCGGCAUGGUCCCAGCCUCCUCGCAGGCGCCGGCUGGGCAACAUUCCGAGGGGACCGUCCCCUCGAUAAUGGCGAAUGGGACCCA [U27A G68A] | 0.944 |
| GGCCGGCAUGGUCCCAGCCUCCUCGCUGGCGCCGGCUGGGCAACAUCCCGAGGGGACCGUCCCCUCGGUAAUGGCGAGUGGGACCCA [U47C A78G] | 0.807 |
| GGCCGGCAUCGUCCGAGCCUCCUCGCUGGCGCCGGCUGGGCAACAUUCCGAGGGGACCGUCCCCUCGGUAAUGGCGAAUGGGACCCA [G10C C15G] | 0.0723 |
| GGCCGGCAUGGUCCCAGCCUCCUCGCUGGCGCCGGCUGGGCAACAUUCCGAGGGGACCGGCCCCUCGGUAAUGGGGAAUGGGACCCA [U60G C75G] | 0.119 |

| Variant | self-cleavage |
| --- | --- |
| GGCCGGCAUGGUCCCAGCCUCCUCGCUGGCGCAGGCUGGGCAACAUUCAGAGGGGACCGUCCCCUCGGUAAUGGCGAAUGGGACCCA [C33A C49A] | 0.364 |
| GGCCGCCAUGGUCCCAGCCUCCUCGCUGGCGCCGGCUGGGCAACAUUCCGUGGGGACCGUCCCCUCGGUAAUGGCGAAUGGGACCCA [G6C A51U] | 0.469 |
| GGCCGGCAUGGUCCCAGCCUACUCGCUGGCGCCGGCUGGGCAACAUUCCGAGGUGACCGUCCCCUCGGUAAUGGCGAAUGGGACCCA [C21A G54U] | 0.0773 |
| GGCCGGCAUGGUCCCAGCCUCCUCGCUGGCGCCGGCUGGACAACAAUCCGAGGGGACCGUCCCCUCGGUAAUGGCGAAUGGGACCCA [G40A U46A] | 0.437 |
| GGCCGGCAUGGCCCCAGCCUCCUCGCUGGCGCCAGCUGGGCAACAUUCCGAGGGGACCGUCCCCUCGGUAAUGGCGAAUGGGACCCA [U12C G34A] | 0.0692 |
| GGCCGGCAUGGUCCGAGCCUCCUCGCUGGCGCCGGCUGGGCAACAUUCCGAGGGGACCGUGCCCUCGGUAAUGGCGAAUGGGACCCA [C15G C61G] | 0.178 |
| GGCCGGCAUGGUCCCAGCCUCCUCGCUGGCGUCGGCUGGGCAACAUUCCGAGGGGACCGUCCCCUCGGUAAUGGCGAAUCGGACCCA [C32U G80C] | 0.132 |
| GGCCGGCGUGGUCCCAGCCUCCUCGCCGGCGCCGGCUGGGCAACAUUCCGAGGGGACCGUCCCCUCGGUAAUGGCGAAUGGGACCCA [A8G U27C] | 0.791 |
| GGCCGGCAUGGUCCCACCCUCCUCGCUGGCGCCGGCUGGGCAACAUUCCGAGGGUACCGUCCCCUCGGUAAUGGCGAAUGGGACCCA [G17C G55U] | 0.208 |
| GGCCGGCAUGGUCCCAGCAUCCUCGCUGGCGCCGGCUGGGCAACAUUCCGAGGGGACCGUCCCCUCGGUAAUGGCGAAUGGCACCCA [C19A G82C] | 0.133 |
| GGCCGGCAUGGUCCCAGCCUCCUCGCUGGCGCCGGCUGGGCAACAAUCCGAGGGGACCGUCCCCUCGGCAAUGGCGAAUGGGACCCA [U46A U69C] | 0.779 |
| GGCCGGCAUGGUCCCAGCCUCCUCGCCGGCGCCGGCUGGGCAACAUUCCGAGGGGACCCUCCCCUCGGUAAUGGCGAAUGGGACCCA [U27C G59C] | 0.751 |
| GGCCGGCAUGGUCCCAGCCUCCUCGCUGGCGCCGGCUGGGCAACAUUCCGUGGGGACCGUCCCCUCGGUAAUGGCGAAUGGGACCUA [A51U C86U] | 0.831 |
| GGCCGGCAUGGUCCCAGCCUCCUCGCUGGCGCCGGCUGGGCAACAUUCCGAGGGGACCGUCCCCUCGGAAAUGGCGAAUUGGACCCA [U69A G80U] | 0.141 |
| GGCCGGCAUGGUCCCAGCCUCCUCGCUUGCGCCGGCUGGGCACCAUUCCGAGGGGACCGUCCCCUCGGUAAUGGCGAAUGGGACCCA [G28U A43C] | 0.0755 |
| GGCCGGCAUGGUCCCAGCCUCCUCGCUGGCGCCGGCUGGGCAACAUUCCGAGGGGACCGUCCCCUCGGUAAUAGCGAAUGGGACCCG [G73A A87G] | 0.697 |
| GGCCGGCAUGGUCCCAGCCUCAUCGCUGGCGCGGGCUGGGCAACAUUCCGAGGGGACCGUCCCCUCGGUAAUGGCGAAUGGGACCCA [C22A C33G] | 0.213 |
| GGCCGGCUUGGUCCCAGCCUCCUCGCUGGCGCCGGCUGAGCAACAUUCCGAGGGGACCGUCCCCUCGGUAAUGGCGAAUGGGACCCA [A8U G39A] | 0.318 |
| GGCCGGCAUGGUCCCAGCCUCCUCGCUGGCGCCGACUGGGCAACAUUCCGAGGGGACCGUCCCCUCGGGAAUGGCGAAUGGGACCCA [G35A U69G] | 0.541 |
| GGCCGGCGUGGUCCCAGCCUCCUCGCUGGCGCCGGCUGGGCAACAUUCCGAGGGGACCGUCCCCUCGGUAAUGGCGGAUGGGACCCA [A8G A77G] | 0.867 |
